According to patent US20080038265A1 (published 2008):
Changes are numbered by the printed parent chain. Values belong to the binder of their own block, whether it stands above or below them.

How the values were obtained:
[1] = target: human erythropoietin receptor on human erythroleukemic cells (UT-7/Epo, F36E) (human), P19235; assay: cell-based or functional assay
soluble EpoR (EposR) = target: T1, soluble EpoR (EposR) (human, UniProt P19235 25-250, limits assumed); assay: yeast surface display, flow cytometry: equilibrium titration of scFv-displaying yeast with soluble EpoR at 37 C, bound EposR detected with MAB307 + anti-mouse RPE
T1 construct: Test antigen in BIAcore and in yeast display assays; also called soluble recombinant human EpoR
T1 sequence (looked up): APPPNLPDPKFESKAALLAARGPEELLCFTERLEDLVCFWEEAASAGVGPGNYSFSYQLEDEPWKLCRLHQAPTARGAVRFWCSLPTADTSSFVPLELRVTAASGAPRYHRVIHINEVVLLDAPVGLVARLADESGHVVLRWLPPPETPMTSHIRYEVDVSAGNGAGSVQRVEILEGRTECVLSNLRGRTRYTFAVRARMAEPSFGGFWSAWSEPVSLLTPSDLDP
Experimental: Functional cell surface protein expression was compared by incubating the transformed yeast with increasing concentrations of soluble EpoR (EposR) at 37° C.

Sequence of human erythropoietin receptor on human erythroleukemic cells (UT-7/Epo, F36E) (human), P19235 (P19235 25-508, stated change not applied): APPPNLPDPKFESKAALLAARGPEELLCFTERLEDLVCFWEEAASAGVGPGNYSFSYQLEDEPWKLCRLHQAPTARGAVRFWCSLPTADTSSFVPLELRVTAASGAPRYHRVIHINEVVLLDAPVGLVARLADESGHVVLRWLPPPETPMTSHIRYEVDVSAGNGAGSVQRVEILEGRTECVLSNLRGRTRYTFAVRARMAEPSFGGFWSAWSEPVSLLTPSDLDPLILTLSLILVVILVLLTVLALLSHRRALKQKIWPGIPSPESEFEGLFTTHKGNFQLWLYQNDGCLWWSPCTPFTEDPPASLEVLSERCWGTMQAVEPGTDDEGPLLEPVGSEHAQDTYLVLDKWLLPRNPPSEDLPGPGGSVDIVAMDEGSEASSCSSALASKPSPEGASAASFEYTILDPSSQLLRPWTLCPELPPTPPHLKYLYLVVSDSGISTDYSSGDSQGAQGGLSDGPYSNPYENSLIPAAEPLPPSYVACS

EC50, cell proliferation assay [1]: 1.13 nM
Emax, cell proliferation assay [1]: 2.65 absorbance
B1: Ab12.118 (antibody, IgG2, V domains shown)
VH: QVQLQESGPGLVKPSETLSLTCTVSGASISSYYWSWIRQPPGKGLEWIGYIGYSGSTNYNPSLKSRVTISVDTSKNQFSLKLRSVTAADTAVYYCARERLGIGDYWGQGTLVTVSS
VL: DIQLTQSPSSLSASVGDRVTITCRASQGIRNDLGWYQQKPGKAPKRLIYAASSLQSGVPSRFSGSGSGTEFTLTISSLQPEDFATYYCLQHNTYPPTFGQGTKVEIK

EC50, cell proliferation assay [1]: 1.34 nM
Emax, cell proliferation assay [1]: 2.53 absorbance
B2: Ab12.119 (antibody, IgG2, V domains shown)
VH: B1 VH with G52Y, Y53G
VL: B1 VL

EC50, cell proliferation assay [1]: 0.91 nM
Emax, cell proliferation assay [1]: 2.7 absorbance
B3: Ab12.123 (antibody, IgG2, V domains shown)
VH: B1 VH with S54E
VL: B1 VL

EC50, cell proliferation assay [1]: 0.465 nM
Emax, cell proliferation assay [1]: 2.3 absorbance
B4: Ab12.121 (antibody, IgG2, V domains shown)
VH: B1 VH with Y53G
VL: B1 VL

EC50, cell proliferation assay [1]: 0.58 nM
Emax, cell proliferation assay [1]: 2.81 absorbance
B5: Ab12.6 (antibody, V domains shown)
VH: B1 VH with Y53G, S54E
VL: B1 VL

EC50, cell proliferation assay [1]: 1.17 nM
Emax, cell proliferation assay [1]: 2.51 absorbance
B6: Ab12.56 (antibody, IgG2, V domains shown)
VH: B1 VH with G52A, Y53G, S54T
VL: B1 VL

EC50, cell proliferation assay [1]: 0.34 nM
Emax, cell proliferation assay [1]: 2 absorbance
B7: Ab12.120 (antibody, IgG2, V domains shown)
VH: B1 VH with G52Y, S54E
VL: B1 VL

EC50, cell proliferation assay [1]: 1.29 nM
Emax, cell proliferation assay [1]: 1.98 absorbance
B8: Ab12 (antibody, human IgG2, V domains shown)
VH: B1 VH with G52Y
VL: B1 VL

EC50, cell proliferation assay [1]: 0.42 nM
Emax, cell proliferation assay [1]: 2.4 absorbance
B9: Ab12.122 (antibody, IgG2, V domains shown)
VH: B1 VH with G52Y, Y53G, S54E
VL: B1 VL

EC50 (read off the curve) (soluble EpoR (EposR)): ~6 nM
B10: Ab12 41/WT (scFv)
scFv displayed on yeast: GENKVEYAPALMALSQVQLQESGPGLVKPSETLSLTCTVSGASISSYYWSWIRQPPGKGLEWIGYIYYSGSTNYNPSLKSRVTISVDTSKNQFSLKLRSVTAADTAVYYCARERLGIGDYWGQGTLVTVSSGGGGSGGGGSGGGGSDIQLTQSPSSLSASVGDRVTITCRASQGIRNDLGWYQQKPGKAPKRLIYAASSLQSGVPSRFSGSGSGTEFTLTISSLQPEDFATYYCLQHNTYPPTFGQGTKVEIK
notes: also called Ab12 scFv construct with linker 41 in the tether position and the Gly/Ser linker (WT) in the scFv linker position
